Assay results from patent US20260345809 (published 2026).

B1: GC33 (antibody, V domains shown)
VH: QVQLVQSGAEVKKPGASVKVSCKASGYTFTDYEMHWVRQAPGQGLEWMGALDPKTGDTAYSQKFKGRVTLTADKSTSTAYMELSSLTSEDTAVYYCTRFYSYTYWGQGTLVTVSS
VL: DVVMTQSPLSLPVTPGEPASISCRSSQSLVHSNRNTYLHWYLQKPGQSPQLLIYKVSNRFSGVPDRFSGSGSGTDFTLKISRVEAEDVGVYYCSQNTHVPPTFGQGTKLEIKR
B2: GC33-ZLA (antibody, V domains shown)
VH: B1 VH
VL: B1 VL
modifications: ADC, ZLA conjugate of GC33
B3: Y035 (antibody, V domains shown)
VH: EVQLVQSGAEVKKPGASVKVSCKASGYTHSDYEMHWVRQAPGQGLEWMGAIHPGSGDTAYNQRFKGRVTITADKSTSTAYMELSSLRSEDTAVYYCARFYSYAYWGQGTLVTVSA
VL: DIVMTQTPLSLPVTPGEPASISCRSSQSLVHSNGNTYLQWYLQWYLQKPGQSPQLLIYKVSNRFSGVPDRFSGSGSGTDFTLKISRVEAEDVGVYYCSQSIYVPYTFGQGTKLEIKR
B4: GC33-L4-D4 (antibody, V domains shown)
VH: B1 VH
VL: B1 VL
modifications: ADC, MC-MMAF conjugate of GC33

Key:
[1] = target: T1, GPC3 (human, UniProt P51654); test: FACS, Huh-7 cells
[2] = target: T1, GPC3; test: FACS, HepG2 cells
[3] = target: T1, GPC3; test: FACS, GPC3-CHO-K1 cells
[4] = target: T1, GPC3; test: FACS, HepG2 cells; remark: listed apart in the source

Binder	EC50 [1]	EC50 [2]	EC50 [3]	EC50 [4]
B1	0.953 nM	0.269 µg/mL	0.956 nM	0.745 nM
B2	–	0.143 µg/mL	–	–
B3	1.18 nM	–	1.46 nM	1.25 nM
B4	–	0.112 µg/mL	–	–
